Laboratory results reported in patent publication US20220387557A1 (OXFORD UNIVERSITY INNOVATION, published 2022).

T1: Fc tagged human TNFR2 (Sino Biological) (human, UniProt P20333 23-257)
T1 construct: Bought reagent; also called hTNFR2; hTNFR2-Fc; not shown: Fc tag of the bought protein
T1 sequence (looked up): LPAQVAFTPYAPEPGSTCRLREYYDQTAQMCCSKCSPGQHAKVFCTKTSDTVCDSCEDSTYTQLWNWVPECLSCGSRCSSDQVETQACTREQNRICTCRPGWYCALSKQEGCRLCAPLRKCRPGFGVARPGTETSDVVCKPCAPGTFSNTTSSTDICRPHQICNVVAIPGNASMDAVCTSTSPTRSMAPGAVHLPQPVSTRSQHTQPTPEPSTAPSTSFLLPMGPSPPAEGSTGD

T2: Fc tagged mouse TNFR1 (Sino Biological) (mouse, UniProt P25118 22-212, limits assumed)
T2 construct: Bought reagent; also called mTNFR1; mTNFR1-Fc; not shown: Fc tag of the bought protein
T2 sequence (looked up): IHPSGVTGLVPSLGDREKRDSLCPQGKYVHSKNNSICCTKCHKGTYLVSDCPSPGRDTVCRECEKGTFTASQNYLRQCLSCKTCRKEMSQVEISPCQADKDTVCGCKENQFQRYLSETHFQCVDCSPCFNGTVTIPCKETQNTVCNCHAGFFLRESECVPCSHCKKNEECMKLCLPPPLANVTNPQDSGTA

T3: Fc tagged human TNFR1 (Sino Biological) (human, UniProt P19438 22-211, limits assumed)
T3 construct: Bought reagent; also called hTNFR1; hTNFR1-Fc; not shown: Fc tag of the bought protein
T3 sequence (looked up): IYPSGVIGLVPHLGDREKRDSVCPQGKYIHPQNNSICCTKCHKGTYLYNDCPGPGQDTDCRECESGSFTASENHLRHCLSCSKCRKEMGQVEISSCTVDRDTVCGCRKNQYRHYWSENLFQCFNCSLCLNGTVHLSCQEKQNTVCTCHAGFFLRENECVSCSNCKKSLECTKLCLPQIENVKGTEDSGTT

T4: Fc tagged mouse TNFR2 (Sino Biological) (mouse, UniProt P25119 23-258)
T4 construct: Bought reagent; also called mTNFR2; mTNF2; not shown: Fc tag of the bought protein
T4 sequence (looked up): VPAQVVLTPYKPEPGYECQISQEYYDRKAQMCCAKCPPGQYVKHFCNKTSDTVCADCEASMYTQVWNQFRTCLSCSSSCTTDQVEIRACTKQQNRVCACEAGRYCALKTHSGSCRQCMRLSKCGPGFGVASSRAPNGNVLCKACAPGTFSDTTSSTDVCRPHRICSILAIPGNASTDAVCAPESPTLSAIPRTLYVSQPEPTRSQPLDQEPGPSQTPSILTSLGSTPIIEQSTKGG


Assays:
[1] = target: T1, Fc tagged human TNFR2 (Sino Biological); test: SPR, Biacore T200 multi cycle kinetics, 1:1 model; ** = a residual amount of binding is observed but 1 to 1 model is a poor fit
Procedure: (§1) Multi cycle kinetics analysis of binding to hTNFR1, hTNFR2, mTNFR1 and mTNFR2 was performed on the 10 lead variants using a Biacore T200 (serial no. 1909913) instrument running Biacore T200 Evaluation Software V3.0.1 (Uppsala, Sweden) to characterise further the binding to these receptors.
As with the single cycle kinetics, receptor binding was assessed in two separate experiments. In the first set of experiments binding to hTNFR1 (Fc2), hTNFR2 (Fc3) and mTNFR1 (Fc4) was assessed. In the second set of experiments the extent of mTNF2 (Fc4) binding was assessed using hTNFR1 (Fc2) and hTNFR2 (Fc3) as controls. All receptors were diluted in running buffer to a concentration of ˜4 μg/mL and at the start of each cycle loaded onto Fc2, Fc3 and Fc4 of a Protein A CM5 chip and captured at a flow rate of 10 μL/min to give an RU of ˜40-100. The surface was then allowed to stabilise. All kinetic data was obtained using a flow rate of 75 μl/min to minimise any potential mass transfer effects. […] The association phase of TNF was monitored for 280 seconds and the dissociation phase was measured for 2100 seconds. […] Regeneration of the Protein A surface was conducted using two injections of 10 mM glycine-HCL pH 1.5 at the end of each cycle. […]

[2] = target: T2, Fc tagged mouse TNFR1 (Sino Biological); test: SPR, Biacore T200 single cycle kinetics, receptor-Fc captured on Protein A chip, TNF 1.67-15 nM
Procedure: (§2) Single cycle kinetic analysis was performed using a Biacore T200 (serial no. 1909913) running Biacore T200 Evaluation Software V2.0.1 (Uppsala, Sweden). All experiments were run at 25° C. with HBS-P+ running buffer (pH 7.4) (GE Healthcare, Little Chalfont, UK).
(§3) Due to the limit in the number of available flow cells for analysis (three Fc per analysis, Fc2, Fc3 and Fc4, with Fc1 always being used as blank reference for non-specific subtraction), receptor binding was assessed in two separate overlapping runs using either: hTNFR1 (Fc2), hTNFR2 (Fc3) and mTNFR1 (Fc4), or; hTNFR1 (Fc2), […] and mTNFR2 (Fc4). Receptors were diluted in running buffer to a concentration of ˜4 μg/mL and at the start of each cycle loaded onto Fc2, Fc3 and Fc4 of a Protein A chip (GE Healthcare, Little Chalfont, UK) at a flow rate of 10 μL/min to give an RU of 40-100. The surface was then allowed to stabilise. Single cycle kinetic data was obtained at a flow rate of 45 μL/min. […] The association phase for the three injections of increasing concentrations of TNF was monitored for 240 seconds and a single dissociation phase was measured for 2700 seconds following the last injection of TNF. Regeneration of the Protein A surface was conducted using 10 mM glycine-HCl pH 1.5. The signal from the reference channel Fc1 (no receptor) was subtracted from that of Fc2, Fc3 and Fc4 to correct for differences in non-specific binding to a reference surface.

[3] = target: T3, Fc tagged human TNFR1 (Sino Biological); test: as above
Procedure: as §2, §3

[4] = target: T2, Fc tagged mouse TNFR1 (Sino Biological); test: SPR, Biacore T200 multi cycle kinetics, receptor-Fc captured on Protein A chip, TNF 1.25-40 nM, 1:1 model
Procedure: as §1
(§4) As with the single cycle kinetics, receptor binding was assessed in two separate experiments. In the first set of experiments binding to hTNFR1 (Fc2), hTNFR2 (Fc3) and mTNFR1 (Fc4) was assessed. In the second set of experiments the extent of mTNF2 (Fc4) binding was assessed using hTNFR1 (Fc2) and hTNFR2 (Fc3) as controls. All receptors were diluted in running buffer to a concentration of ˜4 μg/mL and at the start of each cycle loaded onto Fc2, Fc3 and Fc4 of a Protein A CM5 chip and captured at a flow rate of 10 μL/min to give an RU of ˜40-100. The surface was then allowed to stabilise. All kinetic data was obtained using a flow rate of 75 μl/min to minimise any potential mass transfer effects. […] The association phase of TNF was monitored for 280 seconds and the dissociation phase was measured for 2100 seconds. […] Regeneration of the Protein A surface was conducted using two injections of 10 mM glycine-HCL pH 1.5 at the end of each cycle. The signal from the reference channel Fc1 was subtracted from that of Fc2, Fc3 and Fc4 to correct for differences in non-specific binding to a reference surface, and a global Rmax parameter was used in the 1-to-1 binding model.

[5] = target: T3, Fc tagged human TNFR1 (Sino Biological); test: as above
Procedure: as §1, §4

[6] = target: T4, Fc tagged mouse TNFR2 (Sino Biological); test: SPR (Biacore T200) single cycle kinetics, Fc-tagged receptor captured on Protein A chip, TNF protein as analyte at 1.67-15 nM
Procedure: as §2, §3
(§5) Controls were used to ensure the integrity of the receptors during the Biacore run.

[7] = target: T2, Fc tagged mouse TNFR1 (Sino Biological); test: SPR, Biacore single cycle kinetics, stability study, after 1 year at -80° C.
Procedure: as §3
(§6) At day zero (prior to freezing) and following thawing on ice after 3 months and 1 year the following assays were performed: [0341] SDS-PAGE [0342] OD280 nm [0343] Single cycle Biacore for binding to hTNFR1, hTNFR2 and mTNFR1

[8] = target: T3, Fc tagged human TNFR1 (Sino Biological); test: as above
Procedure: as §3, §6

[9] = target: T1, Fc tagged human TNFR2 (Sino Biological); test: SPR (Biacore T200) single cycle kinetics, Fc-tagged receptor captured on Protein A chip, TNF protein as analyte at 1.67-15 nM
Procedure: as §2, §3, §5

[10] = target: T2, Fc tagged mouse TNFR1 (Sino Biological); test: SPR, Biacore single cycle kinetics, stability study, after 1 year at -20° C.
Procedure: as §3, §6

[11] = target: T3, Fc tagged human TNFR1 (Sino Biological); test: as above
Procedure: as §3, §6

[12] = target: T2, Fc tagged mouse TNFR1 (Sino Biological); test: SPR, Biacore single cycle kinetics, stability study, before freezing (t=0)
Procedure: as §3, §6

[13] = target: T3, Fc tagged human TNFR1 (Sino Biological); test: as above
Procedure: as §3, §6

[14] = target: T4, Fc tagged mouse TNFR2 (Sino Biological); test: phage binding test on Fc tagged receptor
[15] = target: T1, Fc tagged human TNFR2 (Sino Biological); test: phage binding test on Fc tagged receptor

Row | Binder | Kd [1] [nM] | Kd [2] [nM] | Kd [3] [nM] | Kd [4] [nM] | Kd [5] [nM] | binding result [6] | Kd [7] [nM] | Kd [8] [nM] | binding result [9] | Kd [10] [nM] | Kd [11] [nM] | Kd [12] [nM] | Kd [13] [nM] | binding result [14] | binding result [15]
1 | TNF mutein C8 (ligand, Human TNF mutein, SQTHDG at positions 84-89; not shown: C-terminal FLAG tag and His6 tag from vector pANT65) VRSSSRTPSDKPVAHVVANPQAEGQLQWLNRRANALLANGVELRDNQLVVPSEGLYLIYSQVLFKGQGCPSTHVLLTHTISRISQTHDGKVNLLSAIKSPCQRETPEGAEAKPWYEPIYLGGVFQLEKGDRLSAEINRPDYLDFAESGQVYFGIIAL | 4.13 | 0.363 | 0.188 | 0.112 | 0.261 | no binding (tested: 15 nM) | – | – | – | – | – | – | – | – | –
2 | TNF mutein G4 (ligand, Human TNF mutein, SSTYNP at positions 84-89; also called mutTNF G4; mutTNF; not shown: C-terminal FLAG tag and His6 tag from vector pANT65) VRSSSRTPSDKPVAHVVANPQAEGQLQWLNRRANALLANGVELRDNQLVVPSEGLYLIYSQVLFKGQGCPSTHVLLTHTISRISSTYNPKVNLLSAIKSPCQRETPEGAEAKPWYEPIYLGGVFQLEKGDRLSAEINRPDYLDFAESGQVYFGIIAL | – | 0.0407 | 0.0171 | 0.14 | 0.00872 | no binding (tested: 15 nM) | 0.0458 | 0.0399 | no binding (tested: 15 nM) | 0.0692 | 0.0331 | 0.07 | 0.0173 | – | –
3 | TNF variant C9 (ligand, Human TNF variant from Library 2, AVTYQT at positions 84-89; not shown: C-terminal FLAG tag and His6 tag from vector pANT65) VRSSSRTPSDKPVAHVVANPQAEGQLQWINGRANALLANGVELRDNQLVVPSEGLYLIYSQVLFKGQGCPSTHVLLTHTISRIAVTYQTKVNLLSAIKSPCQRETPEGAEAKPWYEPIYLGGVFQLEKGDRLSAEINRPDYLDDADSGQVYFGIIAL | 289 | 0.607 | 0.0248 | 1.13 | 0.0717 | no binding (tested: 15 nM) | – | – | – | – | – | – | – | – | –
4 | phage displaying mTNF (gene III fusion, pANT65) (other, mouse, UniProt P06804 80-235, looked up, also called mTNF (phage); not shown: FLAG tag, His6 tag and phage gene III protein of pANT65) LRSSSQNSSDKPVAHVVANHQVEEQLEWLSQRANALLANGMDLKDNQLVVPADGLYLVYSQVLFKGQGCPDYVLLTHTVSRFAISYQEKVNLLSAVKSPCPKDTPEGAELKPWYEPIYLGGVFQLEKGDQLSAEVNLPKYLDFAESGQVYFGVIAL | – | – | – | – | – | – | – | – | – | – | – | – | – | binds | binds
